Reference: patent publication EP4711384A1 (WIO Bioscience Co., Ltd., dated 2026)
Several values for one entry are separate records, joined by “and”; a condition that tells them apart may be missing. Identical values can stand only once. Like-named read-outs stand apart in the source and are kept apart here.

B1: R1-C10 (VHH)
VHH: QVQLQESGGGSVQAGETLRLSCTASGSTFDEYDMGWYRQAPGNKCELVSTISTIDGSTYYADSVKGRFTISQDNTKNTVYLQMNSLKPEDTGVYYCEADDRGTWDRGGCWGQGTQVTVSS
B2: R1-E12 (VHH)
VHH: QVQLQESGGGSVQAGGSLRLSCVASGTTMSMNYMAWFRQAPGKEREGVASIFRSTHYADSVKGRFTIAEDSAKNTVYLQMNSLKPEDTAVYYCAAGRTKPYLTPLAESQYNYWGQGIQVTVSS
B3: R1-F9 (VHH)
VHH: QVQLQESGGGSVQAGETLRLSCTASGFTVHDMGWYRQAPGNECELVSTISSDGSTYYADSVKGRFTISQDNAKNTVYLQMNSLKPEDTAVYYCAADHFTGLQLAECKADFGYWGQGTQVTVSS
B4: Rap-A10 (VHH)
VHH: QVQLQESGGGLVQAGGSLKLSCAASGYTYGPYCMGWFRQFPGKEREGVAAVGGDGRTWYGNSVKGRFTISQDNAKKTLYLQINALKPEDTAMYYCAADFDRTVCSDDIYDYTYRGQGTQVTVSS
B5: Rap-C10 (VHH)
VHH: QVQLQESGGGSVQPGGSLRLSCAASGFTYIPAYMGWFRQAPGKERERVASISSTDGSTTYADSVKGRFTVSQDTAKNTLYLQMNSLKPEDTAMYYCAAYQFGAFRVWGQGTQVTVSS
B6: R1-A12 (VHH)
VHH: QVQLQESGGGPVQAGGSLRLSCSASTTAYDNACMGWFRQAPGKEREGVASIHLRDRTYYADSVKGRFTLSRDGASKTLYLQMNSLKPEDSGTYYCASSNICNGLNLQGNTYWGQGTQVTVSS
B7: Rap-F11 (VHH)
VHH: QVQLQESGGGSVQPGGSLRLSCAASGFTYIPAYMGWFRQAPGKERERVASIKTDGSTTYADSVNGRFTIAQDTAKNTLYLQMDSLKPEDTAMYYCAAYQFGAFRVWGQGTQVTVSS
B8: Wio-02-01 (R1-A12-GGGGS-Rap-A10) (bispecific antibody)
chain: QVQLQESGGGPVQAGGSLRLSCSASTTAYDNACMGWFRQAPGKEREGVASIHLRDRTYYADSVKGRFTLSRDGASKTLYLQMNSLKPEDSGTYYCASSNICNGLNLQGNTYWGQGTQVTVSSGGGGSQVQLQESGGGLVQAGGSLKLSCAASGYTYGPYCMGWFRQFPGKEREGVAAVGGDGRTWYGNSVKGRFTISQDNAKKTLYLQINALKPEDTAMYYCAADFDRTVCSDDIYDYTYRGQGTQVTVSS
B9: R1-C7 (VHH)
VHH: QVQLQESGGGPVQAEGSLRLSCTASGNLYRDPCMGWFRQAPGKDREGVAAMNTGADSTFYARSVKGRFTISHDNAKNTLYLQMNSVKPEDTAMYYCAASRYCTERTWTWRYDYDYWGQGTQVTVSS
B10: Wio-02-09 (R1-C10-GGGGS-Rap-F11) (bispecific antibody)
chain: QVQLQESGGGSVQAGETLRLSCTASGSTFDEYDMGWYRQAPGNKCELVSTISTIDGSTYYADSVKGRFTISQDNTKNTVYLQMNSLKPEDTGVYYCEADDRGTWDRGGCWGQGTQVTVSSGGGGSQVQLQESGGGSVQPGGSLRLSCAASGFTYIPAYMGWFRQAPGKERERVASIKTDGSTTYADSVNGRFTIAQDTAKNTLYLQMDSLKPEDTAMYYCAAYQFGAFRVWGQGTQVTVSS
B11: Wio-02-11 (R1-C10-GGGGS-Rap-C10) (bispecific antibody)
chain: QVQLQESGGGSVQAGETLRLSCTASGSTFDEYDMGWYRQAPGNKCELVSTISTIDGSTYYADSVKGRFTISQDNTKNTVYLQMNSLKPEDTGVYYCEADDRGTWDRGGCWGQGTQVTVSSGGGGSQVQLQESGGGSVQPGGSLRLSCAASGFTYIPAYMGWFRQAPGKERERVASISSTDGSTTYADSVKGRFTVSQDTAKNTLYLQMNSLKPEDTAMYYCAAYQFGAFRVWGQGTQVTVSS

What was measured:
[1] = target: human IL-18R1 and IL-18RAP on IL-18 Reporter HEK 293 Cells (human) (UniProt Q13478); test: cell-based or functional assay
[2] = target: human IL-18R1 and IL-18RAP on IL-18 Reporter HEK 293 Cells (human) (UniProt Q13478); test: cell-based or functional assay; remark: listed apart in the source
[3] = target: T1, human IL-18RAP ECD-His (human) (UniProt O95256); test: phage ELISA, 4-fold dilution
T1 sequence: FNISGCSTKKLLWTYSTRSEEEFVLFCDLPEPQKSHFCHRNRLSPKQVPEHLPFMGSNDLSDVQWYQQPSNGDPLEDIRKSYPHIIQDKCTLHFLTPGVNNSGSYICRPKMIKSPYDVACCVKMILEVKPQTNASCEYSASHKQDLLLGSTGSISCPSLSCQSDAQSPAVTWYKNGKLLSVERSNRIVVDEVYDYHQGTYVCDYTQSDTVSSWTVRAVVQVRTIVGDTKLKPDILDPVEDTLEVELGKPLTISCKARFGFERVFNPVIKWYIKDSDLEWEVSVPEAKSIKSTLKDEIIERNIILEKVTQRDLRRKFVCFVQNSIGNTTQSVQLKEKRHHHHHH

[4] = target: T2, human IL-18R1 ECD-His (human) (UniProt Q13478); test: phage ELISA, 4-fold dilution
T2 sequence: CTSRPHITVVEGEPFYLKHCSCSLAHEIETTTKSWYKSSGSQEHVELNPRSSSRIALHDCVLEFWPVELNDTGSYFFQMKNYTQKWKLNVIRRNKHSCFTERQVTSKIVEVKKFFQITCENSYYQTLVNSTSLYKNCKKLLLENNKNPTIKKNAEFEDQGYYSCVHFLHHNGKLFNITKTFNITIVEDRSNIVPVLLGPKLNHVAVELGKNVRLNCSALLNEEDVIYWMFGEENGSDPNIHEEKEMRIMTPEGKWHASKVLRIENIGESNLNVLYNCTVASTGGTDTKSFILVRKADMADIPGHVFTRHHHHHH

[5] = target: T1, human IL-18RAP ECD-His (human); test: phage ELISA, 16-fold dilution
[6] = target: T2, human IL-18R1 ECD-His (human); test: phage ELISA, 16-fold dilution
[7] = target: T3, human IL-18R1 and IL-18RAP on IL-18 Reporter HEK 293 Cells (human, UniProt Q13478 19-541; O95256 20-599); test: cell-based or functional assay
T3 sequence (looked up) 1: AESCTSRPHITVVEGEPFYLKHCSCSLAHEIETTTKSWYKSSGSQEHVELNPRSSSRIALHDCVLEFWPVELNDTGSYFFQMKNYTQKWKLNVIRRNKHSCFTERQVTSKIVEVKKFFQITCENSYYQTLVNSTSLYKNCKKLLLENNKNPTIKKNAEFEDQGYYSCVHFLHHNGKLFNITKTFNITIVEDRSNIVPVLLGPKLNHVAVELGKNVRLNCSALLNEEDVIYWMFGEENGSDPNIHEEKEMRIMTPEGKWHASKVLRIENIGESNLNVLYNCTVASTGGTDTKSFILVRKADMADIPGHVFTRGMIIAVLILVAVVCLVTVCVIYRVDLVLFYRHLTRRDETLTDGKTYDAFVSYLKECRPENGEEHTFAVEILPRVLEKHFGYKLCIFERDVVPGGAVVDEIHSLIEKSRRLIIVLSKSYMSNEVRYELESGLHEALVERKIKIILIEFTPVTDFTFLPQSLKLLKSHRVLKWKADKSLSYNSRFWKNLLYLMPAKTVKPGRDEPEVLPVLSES
T3 sequence (looked up) 2: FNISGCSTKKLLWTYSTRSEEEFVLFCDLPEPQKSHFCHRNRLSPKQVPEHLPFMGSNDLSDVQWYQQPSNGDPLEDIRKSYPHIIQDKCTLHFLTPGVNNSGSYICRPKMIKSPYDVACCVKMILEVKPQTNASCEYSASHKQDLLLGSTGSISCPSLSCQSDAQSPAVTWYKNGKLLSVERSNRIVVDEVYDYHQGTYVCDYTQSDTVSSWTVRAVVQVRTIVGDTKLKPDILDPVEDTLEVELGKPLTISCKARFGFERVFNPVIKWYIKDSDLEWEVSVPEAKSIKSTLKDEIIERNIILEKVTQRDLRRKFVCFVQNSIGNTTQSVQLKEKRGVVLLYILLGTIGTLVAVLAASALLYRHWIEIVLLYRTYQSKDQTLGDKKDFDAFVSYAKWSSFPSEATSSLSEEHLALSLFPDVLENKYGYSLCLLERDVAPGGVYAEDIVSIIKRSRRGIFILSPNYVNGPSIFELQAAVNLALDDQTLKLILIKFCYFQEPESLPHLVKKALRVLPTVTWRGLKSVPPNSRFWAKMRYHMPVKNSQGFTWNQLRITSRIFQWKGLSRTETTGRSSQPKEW

[8] = target: T2, human IL-18R1 ECD-His (human); test: sandwich ELISA, IL-18RAP ECD-hFc detection
[9] = target: T3, human IL-18R1 and IL-18RAP on IL-18 …; test: cell-based or functional assay; remark: listed apart in the source

Molecule	ELISA OD [3]	ELISA OD [4]	ELISA OD [5]	ELISA OD [6]	also measured
recombinant human IL-18 (from UniProt Q14116 37-193) (ligand)	–	–	–	–	EC50 [1]: 0.121 ng/mL; Top630nm [1]: 2.27; EC50 [2]: 0.117 ng/mL; EC50, SEAP reporter [2]: 0.107 ng/mL; Top630nm [2]: 2.44
NC	0.06	0.059	0.068	0.055	–
B1	–	1.33	–	0.977	–
B2	–	2.76	–	2.71	–
B3	–	2.04	–	1.63	–
B4	1.83	–	1.57	–	–
B5	1.85	–	1.58	–	–
B6	–	2.71	–	2.64	–
B7	2	–	1.58	–	–
B8	–	–	–	–	SEAP reporter OD, supernatant 5X [7]: 2.13; SEAP reporter OD, supernatant 25X [7]: 1.92; ELISA OD [8]: 2.14 and 2.26; EC50 [9]: 1.87 ng/mL
B9	–	1	–	0.819	–
B10	–	–	–	–	SEAP reporter OD, supernatant 5X [7]: 1.91; SEAP reporter OD, supernatant 25X [7]: 1.87; ELISA OD [8]: 1.81 and 1.82
B11	–	–	–	–	SEAP reporter OD, supernatant 5X [7]: 2.85; SEAP reporter OD, supernatant 25X [7]: 2.17; ELISA OD [8]: 2.03 and 2.15
